Measurements from patent US20160068605A1 (Janssen / Centocor, published 2016).

Columns and labels:
[1] = target: T1, human CD123 SP2 ECD displayed on pDisplay-transfected cells (human, UniProt P26951 101-305); assay: MSD-CAT on pDisplay cells
T1 construct: ECD anchored on the surface of stably transfected HEK293 cells; also called hCD123 SP2 cells; pDisplay CD123SP2
T1 sequence: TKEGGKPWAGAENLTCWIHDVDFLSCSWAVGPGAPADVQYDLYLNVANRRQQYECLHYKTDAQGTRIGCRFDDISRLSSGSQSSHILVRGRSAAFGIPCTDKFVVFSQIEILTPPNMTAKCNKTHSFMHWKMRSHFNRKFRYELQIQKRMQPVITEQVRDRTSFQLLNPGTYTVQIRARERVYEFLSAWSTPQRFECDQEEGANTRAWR

[2] = target: T2, human CD123 SP1 ECD displayed on pDisplay-transfected cells (human, UniProt P26951 20-305); assay: MSD-CAT on pDisplay cells
T2 construct: ECD anchored on the surface of stably transfected HEK293 cells by the PDGFR transmembrane domain; also called hCD123 SP1 cells; hCD123 cells
T2 sequence: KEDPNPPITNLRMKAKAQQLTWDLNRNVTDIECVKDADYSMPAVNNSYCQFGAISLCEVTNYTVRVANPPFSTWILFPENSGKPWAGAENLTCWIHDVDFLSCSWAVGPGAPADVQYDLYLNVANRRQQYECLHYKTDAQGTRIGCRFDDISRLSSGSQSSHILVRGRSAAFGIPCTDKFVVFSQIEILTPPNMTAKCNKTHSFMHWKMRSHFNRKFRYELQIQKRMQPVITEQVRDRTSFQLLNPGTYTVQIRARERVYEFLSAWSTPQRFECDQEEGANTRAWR

[3] = target: T3, cyno CD123 ECD displayed on pDisplay-transfected cells (cynomolgus monkey); assay: MSD-CAT, cynoCD123 cells, assay-2; apparent KD (bivalent)
T3 construct: ECD anchored on the surface of stably transfected HEK293 cells; also called cynoCD123 SP1 cells; cynoCD123 cells
T3 chain: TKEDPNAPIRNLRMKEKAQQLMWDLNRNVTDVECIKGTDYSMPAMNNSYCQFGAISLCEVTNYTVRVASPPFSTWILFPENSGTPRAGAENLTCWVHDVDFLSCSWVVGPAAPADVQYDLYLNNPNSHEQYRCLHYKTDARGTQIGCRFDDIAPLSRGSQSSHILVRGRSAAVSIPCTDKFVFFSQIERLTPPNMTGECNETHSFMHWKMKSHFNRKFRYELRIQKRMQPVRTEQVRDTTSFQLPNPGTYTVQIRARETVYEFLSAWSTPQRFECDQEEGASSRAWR

[4] = target: T4, Recombinant human CD123 SP1 ECD-His tag protein (human, UniProt P26951 20-305); assay: SPR Biacore 3000, captured mAb
T4 construct: bought from R&D Systems (#301-R3/CF); biotinylated for some assays; also called rhCD123 SP1; huCD123 ECD SP1
T4 sequence: T2 sequence
Experimental: (§1) Kinetic studies were performed at 25° C. using a Biacore 3000 (BIAcore, Inc., now part of GE Healthcare). […] Sheep anti-Human Fd specific antibody (The binding site Prod # PC075) was covalently attached to two flow cells (normally 3 and 4) of the carboxymethyl dextran coated gold surfaces (CM-5 Chip, Biacore). The carboxymethyl groups of dextran were activated with N-Ethyl-N′-(3-Dimethylaminopropyl)carbodiimide (EDC) and N-hydroxysuccinimide (NHS). The antibodies were coupled at pH 4.5 in 10 mM sodium acetate. Any remaining reactive sites on the surface were blocked by reaction with ethanolamine. […] Association data was collected for 2 min followed by 10 min of dissociation. The surface was regenerated with 30 μL of 100 mM H3PO4 100 μL/min. All samples were prepared in D-PBS containing 3 mM EDTA and 0.005% surfactant P20. Data reported is the difference in SPR signal between the flow cell containing the captured antibody or Fab and a reference cell without captured antibody or Fab. Additional instrumental contributions to the signal were removed by subtraction of the data from the blank injection from the reference-subtracted signal. Data were performed in triplicate and analyzed by fitting association and dissociation phases at all concentrations (global fit) with a 1:1 binding model using the BIAevaluation software (BIAcore, Inc.). […] Data presented is an average.

[5] = target: T5, Recombinant human CD123 SP2 ECD protein (human, UniProt P26951 101-303); assay: SPR Biacore 3000, captured mAb
T5 construct: also called rhCD123 SP2; CD123 ECD SP2
T5 sequence: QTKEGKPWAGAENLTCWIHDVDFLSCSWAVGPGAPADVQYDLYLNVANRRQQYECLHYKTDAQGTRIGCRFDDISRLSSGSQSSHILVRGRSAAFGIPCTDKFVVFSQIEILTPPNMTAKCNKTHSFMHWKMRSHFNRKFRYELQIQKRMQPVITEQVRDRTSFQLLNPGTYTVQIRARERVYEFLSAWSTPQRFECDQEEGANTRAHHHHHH
Experimental: as §1

[6] = target: T2, human CD123 SP1 ECD displayed on …; assay: MSD-CAT, hCD123 cells, assay-2; apparent KD (bivalent)

Kd [1]: 49 pM
Kd [2]: 47 pM
Kd [3]: > 11900 pM
Kd [4]: 1200 pM
koff [4]: 0.000808 s⁻¹
kon [4]: 688000 M⁻¹ s⁻¹
Kd [5]: 300 pM
Kd [6]: 343 pM
B1: I3RB18 (antibody, IgG1, V domains shown)
VH: EVQLVQSGAEVKKPGESLKISCKGSGYSFTSYWISWVRQMPGKGLEWMGIIDPSDSDTRYSPSFQGQVTISADKSISTAYLQWSSLKASDTAMYYCARGDGSTDLDYWGQGTLVTVSS
VL: EIVLTQSPGTLSLSPGERATLSCRASQSVSSSYLAWYQQKPGQAPRLLIYGASSRATGIPDRFSGSGSGTDFTLTISRLEPEDFAVYYCQQDYGFPWTFGQGTKVEIK
notes: IgG1; also called 13RB18; mAb I3RB18
